This is an account of results in patent publication US20180244758A1 (MAPP BIOPHARMACEUTICAL, published 2018).

Substitutions are numbered along the chain they refer to. Some results are limits rather than exact numbers.

T1: GP of authentic (wild-type) SUDV (Sudan virus (SUDV), UniProt Q66814 33-676)
T1 sequence: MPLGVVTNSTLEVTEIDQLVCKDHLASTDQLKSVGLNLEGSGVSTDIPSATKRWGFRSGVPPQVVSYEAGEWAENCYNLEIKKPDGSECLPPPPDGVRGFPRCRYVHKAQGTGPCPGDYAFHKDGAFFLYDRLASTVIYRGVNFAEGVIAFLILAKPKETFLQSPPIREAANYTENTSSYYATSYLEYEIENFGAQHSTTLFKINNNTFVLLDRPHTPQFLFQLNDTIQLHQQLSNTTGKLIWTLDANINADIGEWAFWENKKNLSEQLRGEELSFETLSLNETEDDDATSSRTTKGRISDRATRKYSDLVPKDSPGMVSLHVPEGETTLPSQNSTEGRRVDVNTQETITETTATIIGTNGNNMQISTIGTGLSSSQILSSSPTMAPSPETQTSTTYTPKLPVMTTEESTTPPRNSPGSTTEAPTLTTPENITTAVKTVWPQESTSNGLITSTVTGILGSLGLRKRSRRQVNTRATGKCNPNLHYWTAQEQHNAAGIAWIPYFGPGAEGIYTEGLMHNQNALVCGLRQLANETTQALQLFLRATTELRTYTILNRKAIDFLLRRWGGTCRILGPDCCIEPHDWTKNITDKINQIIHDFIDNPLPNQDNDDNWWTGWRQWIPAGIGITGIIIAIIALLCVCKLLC

T2: EBOV GP on rVSV particles (Ebola virus (EBOV), UniProt Q05320 33-676)
T2 sequence: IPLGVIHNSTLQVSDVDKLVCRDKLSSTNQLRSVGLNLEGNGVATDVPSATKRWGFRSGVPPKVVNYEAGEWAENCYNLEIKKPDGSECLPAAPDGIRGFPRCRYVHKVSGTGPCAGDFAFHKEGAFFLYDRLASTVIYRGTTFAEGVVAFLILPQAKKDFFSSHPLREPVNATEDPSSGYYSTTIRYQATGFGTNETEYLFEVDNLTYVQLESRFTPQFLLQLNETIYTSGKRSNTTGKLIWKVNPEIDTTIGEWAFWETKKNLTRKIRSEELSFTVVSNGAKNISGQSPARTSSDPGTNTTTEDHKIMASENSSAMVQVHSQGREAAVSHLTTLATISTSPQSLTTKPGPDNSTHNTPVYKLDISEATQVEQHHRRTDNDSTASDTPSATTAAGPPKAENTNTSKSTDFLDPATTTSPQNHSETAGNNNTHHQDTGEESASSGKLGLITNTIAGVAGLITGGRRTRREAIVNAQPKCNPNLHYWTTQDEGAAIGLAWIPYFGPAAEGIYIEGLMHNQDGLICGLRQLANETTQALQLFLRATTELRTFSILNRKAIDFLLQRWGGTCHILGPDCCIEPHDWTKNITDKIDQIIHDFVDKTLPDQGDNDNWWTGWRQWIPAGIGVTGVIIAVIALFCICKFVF

T3: EBOV GPCL on cleaved VSV-GP particles (Ebola virus (EBOV), UniProt Q05320 33-676)
T3 sequence: T2 sequence

T4: TAFV GP on VSV pseudotype particles (Tai Forest virus (TAFV), UniProt Q66810 33-676)
T4 sequence: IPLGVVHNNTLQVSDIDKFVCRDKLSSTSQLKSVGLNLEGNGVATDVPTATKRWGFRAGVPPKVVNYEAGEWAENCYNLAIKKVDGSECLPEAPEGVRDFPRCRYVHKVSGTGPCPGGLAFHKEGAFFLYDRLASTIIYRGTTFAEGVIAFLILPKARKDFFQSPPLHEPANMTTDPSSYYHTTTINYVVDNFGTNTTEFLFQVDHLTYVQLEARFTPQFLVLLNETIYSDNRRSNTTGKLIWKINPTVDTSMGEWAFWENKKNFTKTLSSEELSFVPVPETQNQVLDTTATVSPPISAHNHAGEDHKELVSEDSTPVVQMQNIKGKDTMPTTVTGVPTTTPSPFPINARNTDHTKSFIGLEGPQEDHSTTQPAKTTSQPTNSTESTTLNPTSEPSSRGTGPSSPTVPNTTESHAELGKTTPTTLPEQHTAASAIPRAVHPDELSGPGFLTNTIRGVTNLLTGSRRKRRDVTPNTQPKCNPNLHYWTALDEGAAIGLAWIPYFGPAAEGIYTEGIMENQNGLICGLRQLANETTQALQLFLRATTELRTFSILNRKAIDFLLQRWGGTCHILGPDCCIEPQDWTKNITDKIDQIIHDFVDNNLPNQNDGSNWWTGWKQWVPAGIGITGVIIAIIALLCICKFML

T5: SUDV GP on rVSV particles (Sudan virus (SUDV), UniProt Q66814 33-676)
T5 sequence: T1 sequence

T6: GP of authentic (wild-type) EBOV (Ebola virus (EBOV), UniProt P87666 33-676)
T6 sequence: T2 sequence with V278A, G282R, S345P, L346P, S390P, P398L, S408G, F411L, T467A, I512T

B1: mAb PE-47 (antibody, V domains shown)
VH: EVQLVESGGGLVKPGGSLRLSCAASGFTFSNAWMSWVRQAPGEGLEWVGRIKSKTDGGTIDYAAPVKGRFTISRDDSKNTVYLQMTSLKTEDTAVYYCTTYTEDMQYFDWLLRGGETFDYWGQGTLVTVSS
VL: DIQMTQSPSSLSASVGDRVTITCRASQYISTYLNWYQQKPGKAPKLLIYAAYNLQSGVPSRFSGSGSGTDFTLTISSLQPEDFATYYCQQSYSTPGRYTFGQGTKVEIK
B2: mAb PE-87 (antibody, V domains shown)
VH: QVQLVQSGVTLVQPGGSLRVSCAASGFTFSSYAMSWVRQAPGKGLEWVSAISGLGGSTYYADSVKGRFTISRDNSKNTLYLQMNSLRAEDTAVYYCAKDHRVWAAGYHFDYWGQGALVTVSS
VL: DIVLTQSPSTLSASVGDRVTITCRASQSISSWLAWYQQKPGEAPKLLISDASSLESGVPSRFSGSGSGTEFTLTISSLQPDDFATYYCQQYYSSPTFGGGTKVEIK
B3: mAb PE-24 (antibody, V domains shown)
VH: EVQLVESGGGLVQPGGSLRLSCAASGFTFSSYAMSWVRQAPGKGLEWVSEISGLGGSTYYADSAKGRFTISRDNSKSTLYLQMNSLRAEDTAVYYCAKDHRVWAPGYYFDHWGQGTLVTVSS
VL: B2 VL with E42K, S49Y, Y87F, Y92N, S93R
B4: mAb PE-05 (antibody, V domains shown)
VH: QVQLQESGGGLVKPGRSLRLSCTASGFTFGDYAMSWFRQAPGKGLEWVGFLRSKAYGGTAEYAASVKGRFTMSRDDSKSIAYLQMNSLKTEDTAVYFCTRDGFRGSSWGYSYYGMDVWGQGTTVTVSS
VL: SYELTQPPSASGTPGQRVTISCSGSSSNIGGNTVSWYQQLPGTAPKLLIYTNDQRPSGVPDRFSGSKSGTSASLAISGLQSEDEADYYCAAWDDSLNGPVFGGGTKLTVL
B5: mAb PE-16 (antibody, V domains shown)
VH: QVQLVQSGAEVTKPGASVKVSCKASGYTFTTYYMHWVRQAPGQGLEWVGIINPSGGITRYAQKFQGRVTLTRDTSTTTVYMELSSLRSEDTAVYYCARDRYPVLFATDYGMDVWGQGTTVTVSS
VL: DIVMTQSPATLSLSPGERATLSCRASQSVSGYLAWYQQKPGQAPRLLIYDASNRATGIPARFSGSGSGTDFTLTISSLEPEDFAVYYCQQRSIWPPGVTFGGGTKVEIK

The first test addresses T1, GP of authentic (wild-type) SUDV. As to the kind of experiment: cell-based or functional assay.
Consider B1, for which the “Microneut. WT IC50” value was less than 0.1 nM.
The same measure, in the same setting: to B2 belongs 0.3 nM.
Consider B3, for which the “Microneut. WT IC50” value was found to be 0.4 nM.

The target in another test is T2, EBOV GP on rVSV particles. As to the kind of experiment: cell-based or functional assay.
With B4, the “Neutralization (VSV-GP IC50, nM)” value turned out to be 8.8 nM.
Still for that read-out and setting: under B1 stands 6.6 nM.
As to B2, the “Neutralization (VSV-GP IC50, nM)” value stood at 0.5 nM.
On to B3, for which the “Neutralization (VSV-GP IC50, nM)” value amounted to 1.8 nM.
Still for that read-out and setting: under B5 stands 0.2 nM.

In the next test the target is T3, EBOV GPCL on cleaved VSV-GP particles. As to the kind of experiment: cell-based or functional assay.
Consider B1, for which the “Neutralization (VSV-GP IC50, nM)” value came out at 0.08 nM.
As to B2, the “Neutralization (VSV-GP IC50, nM)” value was determined as 0.2 nM.
For the molecule B3, the “Neutralization (VSV-GP IC50, nM)” value was 0.6 nM.
On the same count and under the same terms, to B5 belongs 5.7 nM.

The next test deals with T4, TAFV GP on VSV pseudotype particles. Description: cell-based or functional assay.
For B4, the “Neutralization (VSV-GP IC50, nM)” value was found to be 0.8 nM.
The same measure, in the same setting: under B1 stands 6.1 nM; under B2, 1 nM; under B3, 1.5 nM.
Still for that read-out and setting: to B5 belongs 4.8 nM.

The next test has as its target BDBV GP on rVSV particles (Bundibugyo virus (BDBV)). Description: cell-based or functional assay.
Regarding B4, the “Neutralization (VSV-GP IC50, nM)” value worked out at 3.7 nM.
Still for that read-out and setting: to B1 belongs 0.4 nM.
With B2, the “Neutralization (VSV-GP IC50, nM)” value was determined as 0.5 nM.
Same read-out and setting: to B3 belongs 0.8 nM; to B5, 0.6 nM.

A further test addresses T5, SUDV GP on rVSV particles. Description: cell-based or functional assay.
On to B4, for which the “Neutralization (VSV-GP IC50, nM)” value was 34 nM.
As for B1, the “Neutralization (VSV-GP IC50, nM)” value was 5.1 nM.
The same measure, in the same setting: to B2 belongs 0.3 nM; to B3, 0.5 nM.

A further test deals with T6, GP of authentic (wild-type) EBOV. As to the kind of experiment: cell-based or functional assay.
Consider B4, for which the “Microneut. WT IC50” value is 7.7 nM and the “Neut. WT EBOV PRNT50” value turned out to be 4 nM.
On to B1, for which the “Microneut. WT IC50” value stood at 0.7 nM.
For B2, the “Microneut. WT IC50” value was found to be 0.3 nM and the “Neut. WT EBOV PRNT50” value is less than 0.05 nM.
Taken in the same sequence, the figures for B3 were 1 nM and 0.4 nM.
The like results for B5 were, in that order, 0.05 nM and less than 0.02 nM.
